The text below walks through data of the supplement of paper PMC10126150.

± gives the standard deviation of the averaged measurements.

This data set has as its system ATP. In words: switch fluorescence ratio, 500 uM ATP over buffer (Cy3 cluster intensity, sum of 5 cycles each) (fold (ratio)); higher = stronger signal-on switching upon ATP binding; sequences stand for … in TCGTCGGCAGCGTCAGATGTGTATAAGAGACAGTTTTTTTTTTTTTTTTTTTTTTTTT…TC. Conditions: aptamer strand: ATP DNA aptamer (quencher-CACCTGGGGGAGTATTGCGGAGGAAGG + anchor), 100 nM annealed; ATP concentration: 500 uM. The method in brief: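 Per cluster, summed Cy3 intensity from the target cycles was divided by that from the buffer cycles to give the fluorescence ratio, then averaged per switch-domain sequence. Clusters outside 100-1000 RFU were excluded. The Cy3-labelled switching-strand clusters, on a modified Illumina MiSeq flow-cell, were annealed to 100 nM quencher-labelled ATP aptamer and imaged in selection buffer, then after 15 min with 500 uM ATP at 22 °C, for five cycles with NaOH stripping and re-annealing between them.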
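Note: ATP exposure 15 min at 22 °C before imaging.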

Take GTGGTAAGGG: the switch fluorescence ratio was 0.972 ± 0.034.

On to GGCGGAACGT, for which the switch fluorescence ratio came out at 1 ± 0.023.

Consider GTAGGCATGG, for which the switch fluorescence ratio stood at 1 ± 0.029.

Regarding AATGTCGAAA, the switch fluorescence ratio was determined as 0.998 ± 0.018.

For the sequence ACACTCGTCT, the switch fluorescence ratio amounted to 1.009 ± 0.0051.

For TTTGGGATT, the switch fluorescence ratio was 0.999 ± 0.036.

Regarding TATACAACGA, the switch fluorescence ratio was 1.03 ± 0.021.

As for AGGGTTTCTC, the switch fluorescence ratio turned out to be 0.989 ± 0.0011.

Regarding GGGTGGGATA, the switch fluorescence ratio was found to be 1.02 ± 0.044.

For TTGCTGATTC, the switch fluorescence ratio was 0.9811 ± 0.0067.

As to AATGATATCA, the switch fluorescence ratio worked out at 1.01 ± 0.025.

On to TGTGCCCCTT, for which the switch fluorescence ratio is 0.991 ± 0.042.

Take CGAACGTCAG: the switch fluorescence ratio stood at 1.04 ± 0.012.

Regarding AAGTCCCCGG, the switch fluorescence ratio was 1.18 ± 0.015.

On to TCATTCGGAG, for which the switch fluorescence ratio was found to be 1.02 ± 0.014.

For the sequence CACATGCTCG, the switch fluorescence ratio stood at 1.05 ± 0.076.

Turning to TCTATTCCCT, the switch fluorescence ratio was 1.02 ± 0.027.

For the sequence CGAGTGGGGA, the switch fluorescence ratio was found to be 1.04 ± 0.041.

For the sequence GGGGTGGCAA, the switch fluorescence ratio stood at 1.008 ± 0.0037.

Consider TGCAAAGAAA, for which the switch fluorescence ratio was 1.15 ± 0.12.

Turning to ATTGCAGGGA, the switch fluorescence ratio was 0.993 ± 0.042.

On to GTCGGGAGGC, for which the switch fluorescence ratio came to 1.02 ± 0.022.

In the case of CCTGAAATAT, the switch fluorescence ratio turned out to be 2.53 ± 1.7.

For TTGTTCCAGC, the switch fluorescence ratio worked out at 0.985 ± 0.047.

In the case of AAGATGGTCA, the switch fluorescence ratio was 0.993 ± 0.036.

Consider GGGGAGCATT, for which the switch fluorescence ratio worked out at 1.04 ± 0.013.

Consider CGGTGCTATG, for which the switch fluorescence ratio came out at 1 ± 0.015.

In the case of ACAGGTAGCT, the switch fluorescence ratio was 1.06 ± 0.056.

As to CATTTAGTGT, the switch fluorescence ratio is 0.984 ± 0.012.

Turning to CGTACGGACC, the switch fluorescence ratio stood at 1.26 ± 0.046.

In the case of CGGAAGGCTT, the switch fluorescence ratio is 0.982 ± 0.0095.

In the case of AAGAAGGGAT, the switch fluorescence ratio was 0.953 ± 0.016.

GAGCAGGGCC: the switch fluorescence ratio came out at 0.982 ± 0.046.

Regarding CGTTTTGTTA, the switch fluorescence ratio came out at 0.977 ± 0.028.

Turning to CGTGATTCGC, the switch fluorescence ratio came out at 1.018 ± 0.0023.

With GAATATGTGG, the switch fluorescence ratio came to 1 ± 0.013.

Regarding CTTATAGACT, the switch fluorescence ratio amounted to 1.01 ± 0.011.

For ACGGGCAAGC, the switch fluorescence ratio is 1.72 ± 0.23.

Regarding GGATGTCACT, the switch fluorescence ratio came to 0.974 ± 0.016.

Regarding GTTTTAGAGG, the switch fluorescence ratio is 1.01 ± 0.015.

Regarding GAGGGGTTGA, the switch fluorescence ratio turned out to be 1.01 ± 0.077.

As for ACTAATTAGC, the switch fluorescence ratio was determined as 1.01 ± 0.031.

For GGTCCGATCG, the switch fluorescence ratio is 0.9694 ± 0.0045.

With AGCGAGTGGC, the switch fluorescence ratio amounted to 0.991 ± 0.03.

Turning to AGGGATGTCT, the switch fluorescence ratio was 1.02 ± 0.043.

As to TTTTTGTCGG, the switch fluorescence ratio worked out at 0.996 ± 0.026.

Take ACAAGTATCA: the switch fluorescence ratio was determined as 0.9853 ± 0.0074.

Consider GCAATTTCGC, for which the switch fluorescence ratio turned out to be 1.42 ± 0.58.

Regarding GAATAAAATG, the switch fluorescence ratio stood at 1.04 ± 0.013.

In the case of GGGCGCCTAA, the switch fluorescence ratio turned out to be 1 ± 0.046.

For GGGGCGGTGC, the switch fluorescence ratio worked out at 1.03 ± 0.023.

Take CAGGTGGGTC: the switch fluorescence ratio amounted to 1.02 ± 0.018.

Turning to GACGGGATCA, the switch fluorescence ratio worked out at 1.02 ± 0.033.

With GTTTGCCCAA, the switch fluorescence ratio worked out at 0.987 ± 0.037.

As for GGTATCACGG, the switch fluorescence ratio was found to be 0.9912 ± 0.0045.

In the case of TAGTGGGCGA, the switch fluorescence ratio is 1.01 ± 0.067.

For TAGGCACAAC, the switch fluorescence ratio is 1.15 ± 0.025.

In the case of GATTTAGACT, the switch fluorescence ratio turned out to be 1.04 ± 0.071.

Consider AACCTTTTCA, for which the switch fluorescence ratio is 1.067 ± 0.0026.

As to GTGATATAGG, the switch fluorescence ratio turned out to be 1.03 ± 0.041.

With TAGGGGAGTG, the switch fluorescence ratio is 1.02 ± 0.035.

CGGGGGTGCA: the switch fluorescence ratio was 1 ± 0.0011.

For GAATGTTCTG, the switch fluorescence ratio was determined as 0.996 ± 0.052.

TGTTTTAGG: the switch fluorescence ratio stood at 0.998 ± 0.048.

As to ATACCCTGGG, the switch fluorescence ratio came to 1.03 ± 0.035.

On to GGTCGAAAAC, for which the switch fluorescence ratio was determined as 1.06 ± 0.11.

Consider ATTGCAGTTG, for which the switch fluorescence ratio worked out at 0.954 ± 0.013.

Turning to GCTTTGAATG, the switch fluorescence ratio worked out at 1.011 ± 0.005.

As to ATCGCGTACT, the switch fluorescence ratio was determined as 1.19 ± 0.04.

As to GATGGAAACT, the switch fluorescence ratio stood at 1.008 ± 0.0072.

As for TGTGTCATGT, the switch fluorescence ratio amounted to 0.989 ± 0.013.

Consider CCTTGAACGG, for which the switch fluorescence ratio turned out to be 0.9606 ± 0.005.

Take ACATGCTCCC: the switch fluorescence ratio was 1.73 ± 0.13.

With TCGGAATGTT, the switch fluorescence ratio was found to be 1.02 ± 0.025.

With CGTTATGGGC, the switch fluorescence ratio was found to be 0.979 ± 0.022.

With TGCATTGGAG, the switch fluorescence ratio amounted to 1.01 ± 0.043.

On to CGGAGCGGCG, for which the switch fluorescence ratio worked out at 1.042 ± 0.0095.

Regarding GTTGGATGGA, the switch fluorescence ratio was determined as 0.9966 ± 0.0062.

Regarding TAATAGCATA, the switch fluorescence ratio stood at 1.03 ± 0.033.

As to TATGGGAAGC, the switch fluorescence ratio turned out to be 1.03 ± 0.025.

For the sequence TCGGGGTGTT, the switch fluorescence ratio is 1.001 ± 0.0096.

Take GAGTTAGTAA: the switch fluorescence ratio turned out to be 0.999 ± 0.045.

Turning to TTTAAGGGGT, the switch fluorescence ratio worked out at 0.991 ± 0.051.

In the case of CTTAGTAGTA, the switch fluorescence ratio was determined as 0.992 ± 0.019.

Take AGCCAGAGAC: the switch fluorescence ratio was found to be 1.07 ± 0.036.

Turning to TTGCACGCCT, the switch fluorescence ratio amounted to 1.01 ± 0.024.

Take GCTCAAAGTT: the switch fluorescence ratio was found to be 0.99 ± 0.02.

In the case of AGGGCGTACA, the switch fluorescence ratio was 0.992 ± 0.01.

With TGTAATGGTT, the switch fluorescence ratio stood at 1.004 ± 0.01.

For the sequence GGTCGAGGGT, the switch fluorescence ratio came to 1.022 ± 0.0041.

For the sequence TTAAGGTTAG, the switch fluorescence ratio is 0.976 ± 0.024.

Take TGAACGTCCA: the switch fluorescence ratio is 1.09 ± 0.015.

On to AACGTTAAAT, for which the switch fluorescence ratio stood at 1.01 ± 0.037.

As for TTTAACTGG, the switch fluorescence ratio was found to be 1.03 ± 0.036.

As for GAACTTAGAG, the switch fluorescence ratio is 1.02 ± 0.03.

Regarding GTTTATAGGT, the switch fluorescence ratio was determined as 0.9815 ± 0.0077.

TAGAGGGTGC: the switch fluorescence ratio was determined as 0.967 ± 0.052.

With TGTGGGCGC, the switch fluorescence ratio was 1.01 ± 0.098.

With CATGGGAGCT, the switch fluorescence ratio came to 1.01 ± 0.043.

Regarding ATTTCAGGTC, the switch fluorescence ratio came out at 1.02 ± 0.013.

AGTAAGGGCA: the switch fluorescence ratio came out at 1.01 ± 0.016.

On to TGTTGATACT, for which the switch fluorescence ratio stood at 1.06 ± 0.12.

For the sequence TTGTGGTTTC, the switch fluorescence ratio is 1.01 ± 0.017.

Turning to ATATTTTAAC, the switch fluorescence ratio came out at 1 ± 0.012.

As to TTTAGATTTG, the switch fluorescence ratio came out at 1.024 ± 0.0048.

For CACAATATGT, the switch fluorescence ratio is 1.07 ± 0.078.

As to GGGTGGGGAG, the switch fluorescence ratio stood at 0.984 ± 0.045.

As to GATGCCGGGA, the switch fluorescence ratio worked out at 1.02 ± 0.038.

Take ATGGGGCTTT: the switch fluorescence ratio came to 1.01 ± 0.013.

Turning to CATGATGTTG, the switch fluorescence ratio is 0.975 ± 0.026.

For AGAGCTGCCT, the switch fluorescence ratio was found to be 1.06 ± 0.042.

As to AACCTGGGCC, the switch fluorescence ratio is 1.19 ± 0.099.

As to CGGTGTCTCA, the switch fluorescence ratio turned out to be 1.0117 ± 0.00057.

With CCGGTAGGCC, the switch fluorescence ratio amounted to 0.978 ± 0.033.

Consider AAAAGACGGT, for which the switch fluorescence ratio amounted to 1.015 ± 0.0016.

On to GCTCTAGATG, for which the switch fluorescence ratio came to 1.04 ± 0.0076.

With AAAAATGGTG, the switch fluorescence ratio was 0.981 ± 0.033.

Turning to AAAAATCTGG, the switch fluorescence ratio was 1.45 ± 0.67.

For the sequence CTTATTAGGT, the switch fluorescence ratio was found to be 0.985 ± 0.045.

As for ATGGGGGTTG, the switch fluorescence ratio was 0.999 ± 0.018.
